According to paper PMC8565334, “The horizontal transfer of Pseudomonas aeruginosa PA14 ICE PAPI-1 is controlled by a transcriptional triad between TprA, NdpA2 and MvaT”:

B1: R3.4 (dsDNA)
DNA 1: ATTCTAAAACGATTAGAACTTCTATTTTATCCA
DNA 2: TGGATAAAATAGAAGTTCTAATCGTTTTAGAAT
B2: R3.1 (dsDNA)
DNA 1: AATTTAGCCCAATAGTATTTAAAGCTCAATTAGCAC
DNA 2: GTGCTAATTGAGCTTTAAATACTATTGGGCTAAATT
B3: R3.3 (dsDNA)
DNA 1: TACTGTCTGACCTGAGTTCAACAAAGCATTCTA
DNA 2: TAGAATGCTTTGTTGAACTCAGGTCAGACAGTA
B4: R3.2 (tprA-BS) (dsDNA)
DNA 1: AGTATTTAAAGCTCAATTAGCACCCCGTACTGT
DNA 2: ACAGTACGGGGTGCTAATTGAGCTTTAAATACT
B5: R4 (dsDNA)
DNA 1: TTTCTAACAACGATTCCCACCTGGCTCGCTTTAGGCGTAACATGAAAAACCTTCATCGCTCCTAATCCGTTTCCCTTACGCCTGCCTCGCTCACCCTCTG
DNA 2: CAGAGGGTGAGCGAGGCAGGCGTAAGGGAAACGGATTAGGAGCGATGAAGGTTTTTCATGTTACGCCTAAAGCGAGCCAGGTGGGAATCGTTGTTAGAAA
B6: R5 (dsDNA)
DNA 1: CCTAGTCATCGAGAAATCCCCTCCCCTGTTGCCGAGTATTTCCTGCTGATGCGTGGCGGATGGCCTGCCACTGTGTGCCCCATCATCAAAGGGGGCCTCA
DNA 2: TGAGGCCCCCTTTGATGATGGGGCACACAGTGGCAGGCCATCCGCCACGCATCAGCAGGAAATACTCGGCAACAGGGGAGGGGATTTCTCGATGACTAGG
B7: R2 (dsDNA)
DNA 1: AGTACTGAATCCAGCCACTACCAAGGGGTTAACTGATGCCAGGCTTGGAAATACGGAGCCTTTCCAAGCGACTAAAACAAAGAAGAAAGCTCCCCAGAAA
DNA 2: TTTCTGGGGAGCTTTCTTCTTTGTTTTAGTCGCTTGGAAAGGCTCCGTATTTCCAAGCCTGGCATCAGTTAACCCCTTGGTAGTGGCTGGATTCAGTACT
B8: R3 (dsDNA)
DNA 1: AATTTAGCCCAATAGTATTTAAAGCTCAATTAGCACCCCGTACTGTCTGACCTGAGTTCAACAAAGCATTCTAAAACGATTAGAACTTCTATTTTATCCA
DNA 2: TGGATAAAATAGAAGTTCTAATCGTTTTAGAATGCTTTGTTGAACTCAGGTCAGACAGTACGGGGTGCTAATTGAGCTTTAAATACTATTGGGCTAAATT
B9: R1 (dsDNA)
DNA 1: TTGCAGGGGTTTCGGAGAAAAAACCTGTGACCCAGAACTCTTTTTCCGTATATTTTAAAGCGAAGTCTTCAACAAGCCTTACCGAGAAAGGAAACAGGAT
DNA 2: ATCCTGTTTCCTTTCTCGGTAAGGCTTGTTGAAGACTTCGCTTTAAAATATACGGAAAAAGAGTTCTGGGTCACAGGTTTTTTCTCCGAAACCCCTGCAA

Target: T1, TprA (Pseudomonas aeruginosa PA14, UniProt A0A0H2ZFZ8 1-84)
Experiment: EMSA
Details: protein: recombinant; tags: His-tag removed by TEV; chain copies: 2; label: 5'-Cy5 on strand 1; blunt

Q: Does B1 bind?
A: no binding

Q: Does B2 bind?
A: no binding

Q: Does B3 bind?
A: no binding

Q: Does B4 bind?
A: binds

Target: T1, TprA
Experiment: EMSA; 1 uM TprA
Details: protein: recombinant; tags: His-tag removed by TEV; chain copies: 2; label: 5'-Cy5 on strand 1; blunt

Q: Does B5 bind?
A: no binding

Q: Does B6 bind?
A: no binding

Q: Does B7 bind?
A: no binding

Q: Does B8 bind?
A: binds

Q: Does B9 bind?
A: no binding
